± gives the uncertainty stated by the source.
Experiment: self-splicing fitness, log relative to wild type (ln ratio); higher = more splicing; Tetrahymena group I intron in knt gene, E. coli kanamycin selection, DiMSum; sequences stand for … in CUCUCU…GGAGGGAAAAGUUAUCAGGCAUGCACCUGGUAGCUAGUCUUUAAACCAAUAGAUUGCAUCGGUUUAAAAGGCAAGACCGUCAAAUUGCGGGAAAGGGGUCAACAGCCGUUCAGUACCAAGUCUCAGGGGAAACUUUGAGAUGGCCUUGCAAAGGGUAUGGUAAUAAGCUGACGGACAUGGUCCUAACCACGCAGCCAAGUCCUAAGUCAACAGAUCUUCUGUUGAUAUGGAUGCAGUUCACAGACUAAAUGUCGGUCGGGGAAGAUGUAUUCUUCUCAUAAGAUAUAGUCGGACCUCUCCUUAAUGGGAGCUAGCGGAUGAAGUGAUGCAACACUGGAGCCGCUGGGAACUAAUUUGUAUGCGAAAGUAUAUUGAUUAGUUUUGGAGUACUCGUGGUCG
How it was run: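 Library with all eight P1ex-region intron nucleotides randomised, intron inside the knt kanamycin-resistance gene on pET-22b(+), in E. coli BL21(DE3). Cells grew overnight at 37°C or 30°C on LB agar with or without 25 μg/mL kanamycin (plus 100 μg/mL carbenicillin, 50 μM IPTG, 0.2% rhamnose), in six replicate transformations. Pooled colonies were amplicon-sequenced on Illumina HiSeq 2500. DiMSum fitness is the error-weighted combination of wild-type-normalised replicate fold changes, kanamycin versus none.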

Q: Which “self-splicing fitness (ln)” value (30 °C) does the source give for UAACAGCAAUAUUACGUUUC here?
A: The value was -4.16 ± 0.26.

Q: And the “self-splicing fitness (ln)” value (37 °C)?
A: The value was -2.44 ± 0.23.

Q: For UAAGAGCAAUAUUACGAAUG, which “self-splicing fitness (ln)” value (30 °C) is on record?
A: The value was -2.32 ± 0.17.

Q: And the “self-splicing fitness (ln)” value (37 °C)?
A: Its value is -1.52 ± 0.25.

Q: With UAAGAGCAAUAUUACGACUG as the sequence, how does the “self-splicing fitness (ln)” value (30 °C) read?
A: Its value is -2 ± 0.14.

Q: And the “self-splicing fitness (ln)” value (37 °C)?
A: Its value is -0.767 ± 0.15.

Q: What does the source list for UAAGAGCAAUAUUACGAGAU?
A: self-splicing fitness (ln) (30 °C): -3.76 ± 0.33; self-splicing fitness (ln) (37 °C): -2.32 ± 0.31

Q: Which “self-splicing fitness (ln)” value (30 °C) does the source give for UAAGAGCAAUAUUACGAGUC here?
A: Its value is -3.17 ± 0.49.

Q: What does the source list for UAAGAGCAAUAUUACGAUAC?
A: self-splicing fitness (ln) (30 °C): -3.55 ± 0.26; self-splicing fitness (ln) (37 °C): -3.09 ± 0.4

Q: Which results are given for UAAGAGCAAUAUUACGCAUU?
A: self-splicing fitness (ln) (30 °C): -2.87 ± 0.22; self-splicing fitness (ln) (37 °C): -2.32 ± 0.26

Q: With UAAGAGCAAUAUUACGCUCA as the sequence, how does the “self-splicing fitness (ln)” value (30 °C) read?
A: The value was -2.37 ± 0.23.

Q: And the “self-splicing fitness (ln)” value (37 °C)?
A: Its value is -1.54 ± 0.18.

Q: With UAAGAGCAAUAUUACGGAUG as the sequence, how does the “self-splicing fitness (ln)” value (30 °C) read?
A: The value was -2.57 ± 0.35.

Q: And the “self-splicing fitness (ln)” value (37 °C)?
A: The value was -2.59 ± 0.49.

Q: Which results are given for UAAGAGCAAUAUUACGGCGG?
A: self-splicing fitness (ln) (30 °C): -2.73 ± 0.22; self-splicing fitness (ln) (37 °C): -1.62 ± 0.22

Q: For UAAGAGCAAUAUUACGGGUG, which “self-splicing fitness (ln)” value (30 °C) is on record?
A: Its value is -3.49 ± 0.18.

Q: What about the “self-splicing fitness (ln)” value (37 °C) of the same sequence?
A: The value was -1.06 ± 0.13.

Q: Which “self-splicing fitness (ln)” value (37 °C) does the source give for UAAGAGCAAUAUUACGGUAC here?
A: The value was -2.25 ± 0.41.

Q: What does the source list for UAAGAGCAAUAUUACGGUAU?
A: self-splicing fitness (ln) (30 °C): -3.87 ± 0.23; self-splicing fitness (ln) (37 °C): -2.27 ± 0.18

Q: Which results are given for UAAGAGCAAUAUUACGGUUU?
A: self-splicing fitness (ln) (30 °C): -3.48 ± 0.24; self-splicing fitness (ln) (37 °C): -1.85 ± 0.23

Q: For UAAGAGCAAUAUUACGUCCG, which “self-splicing fitness (ln)” value (30 °C) is on record?
A: Its value is -3.27 ± 0.41.

Q: What does the source list for UAAGAGCAAUAUUACGUGCC?
A: self-splicing fitness (ln) (30 °C): -3.13 ± 0.15; self-splicing fitness (ln) (37 °C): -3.48 ± 0.34

Q: What does the source list for UAAGAGCAAUAUUACGUGGG?
A: self-splicing fitness (ln) (30 °C): -3.82 ± 0.42; self-splicing fitness (ln) (37 °C): -2.68 ± 0.27

Q: For UAAUAGCAAUAUUACGAAAG, which “self-splicing fitness (ln)” value (30 °C) is on record?
A: Its value is -1.92 ± 0.19.

Q: What about the “self-splicing fitness (ln)” value (37 °C) of the same sequence?
A: Its value is -2.03 ± 0.31.

Q: What does the source list for UAAUAGCAAUAUUACGACAG?
A: self-splicing fitness (ln) (30 °C): -2.3 ± 0.19; self-splicing fitness (ln) (37 °C): -0.262 ± 0.17

Q: For UAAUAGCAAUAUUACGACCA, which “self-splicing fitness (ln)” value (30 °C) is on record?
A: The value was -0.451 ± 0.2.

Q: What about the “self-splicing fitness (ln)” value (37 °C) of the same sequence?
A: The value was 0.216 ± 0.31.

Q: With UAAUAGCAAUAUUACGACCU as the sequence, how does the “self-splicing fitness (ln)” value (30 °C) read?
A: The value was -1.69 ± 0.15.

Q: What about the “self-splicing fitness (ln)” value (37 °C) of the same sequence?
A: Its value is -0.4 ± 0.15.

Q: Which results are given for UAAUAGCAAUAUUACGAGCU?
A: self-splicing fitness (ln) (30 °C): -3.02 ± 0.29; self-splicing fitness (ln) (37 °C): -1.79 ± 0.3

Q: For UAAUAGCAAUAUUACGCAAA, which “self-splicing fitness (ln)” value (30 °C) is on record?
A: The value was -2.03 ± 0.18.

Q: And the “self-splicing fitness (ln)” value (37 °C)?
A: The value was -1.27 ± 0.15.

Q: For UAAUAGCAAUAUUACGCGGG, which “self-splicing fitness (ln)” value (30 °C) is on record?
A: Its value is -3.18 ± 0.21.

Q: What about the “self-splicing fitness (ln)” value (37 °C) of the same sequence?
A: Its value is -1.65 ± 0.2.

Q: What does the source list for UAAUAGCAAUAUUACGCUAA?
A: self-splicing fitness (ln) (30 °C): -2.11 ± 0.27; self-splicing fitness (ln) (37 °C): -1.39 ± 0.19

Q: For UAAUAGCAAUAUUACGGAAA, which “self-splicing fitness (ln)” value (37 °C) is on record?
A: The value was -2.44 ± 0.26.

Q: For UAAUAGCAAUAUUACGGAUA, which “self-splicing fitness (ln)” value (30 °C) is on record?
A: The value was -1.97 ± 0.17.

Q: What about the “self-splicing fitness (ln)” value (37 °C) of the same sequence?
A: The value was -1.83 ± 0.2.

Q: Which “self-splicing fitness (ln)” value (30 °C) does the source give for UAAUAGCAAUAUUACGGGCA here?
A: Its value is -0.899 ± 0.2.

Q: What about the “self-splicing fitness (ln)” value (37 °C) of the same sequence?
A: Its value is -0.61 ± 0.19.

Q: For UAAUAGCAAUAUUACGGUAC, which “self-splicing fitness (ln)” value (30 °C) is on record?
A: The value was -3.69 ± 0.43.

Q: And the “self-splicing fitness (ln)” value (37 °C)?
A: The value was -2.37 ± 0.37.

Q: With UAAUAGCAAUAUUACGGUUA as the sequence, how does the “self-splicing fitness (ln)” value (30 °C) read?
A: The value was -0.888 ± 0.11.

Q: What about the “self-splicing fitness (ln)” value (37 °C) of the same sequence?
A: The value was -0.925 ± 0.091.

Q: For UAAUAGCAAUAUUACGUCCG, which “self-splicing fitness (ln)” value (30 °C) is on record?
A: Its value is -0.913 ± 0.23.

Q: And the “self-splicing fitness (ln)” value (37 °C)?
A: Its value is -0.835 ± 0.2.

Q: Which “self-splicing fitness (ln)” value (30 °C) does the source give for UAAUAGCAAUAUUACGUCUU here?
A: Its value is -3.1 ± 0.17.

Q: And the “self-splicing fitness (ln)” value (37 °C)?
A: The value was -1.1 ± 0.11.

Q: Which “self-splicing fitness (ln)” value (30 °C) does the source give for UAAUAGCAAUAUUACGUGCU here?
A: The value was -1.98 ± 0.1.

Q: And the “self-splicing fitness (ln)” value (37 °C)?
A: Its value is -0.994 ± 0.1.

Q: What does the source list for UAAUAGCAAUAUUACGUUAG?
A: self-splicing fitness (ln) (30 °C): -1.84 ± 0.094; self-splicing fitness (ln) (37 °C): -1.13 ± 0.12

Q: Which “self-splicing fitness (ln)” value (30 °C) does the source give for UACAAGCAAUAUUACGAACA here?
A: Its value is -1.14 ± 0.11.

Q: What about the “self-splicing fitness (ln)” value (37 °C) of the same sequence?
A: Its value is -0.734 ± 0.097.

Q: Which “self-splicing fitness (ln)” value (30 °C) does the source give for UACAAGCAAUAUUACGAAGC here?
A: Its value is -3.39 ± 0.23.

Q: And the “self-splicing fitness (ln)” value (37 °C)?
A: The value was -2.74 ± 0.26.

Q: Which “self-splicing fitness (ln)” value (30 °C) does the source give for UACAAGCAAUAUUACGAAUA here?
A: Its value is -1.56 ± 0.087.

Q: And the “self-splicing fitness (ln)” value (37 °C)?
A: Its value is -0.567 ± 0.1.

Q: What does the source list for UACAAGCAAUAUUACGACAG?
A: self-splicing fitness (ln) (30 °C): -1.15 ± 0.092; self-splicing fitness (ln) (37 °C): -0.241 ± 0.11

Q: For UACAAGCAAUAUUACGACGC, which “self-splicing fitness (ln)” value (30 °C) is on record?
A: Its value is -2.93 ± 0.25.

Q: And the “self-splicing fitness (ln)” value (37 °C)?
A: The value was -1.67 ± 0.23.

Source: the supplement of paper PMC7877785
